Laboratory results as given in patent publication US20110166062A1 (INDIANA UNIVERSITY RESEARCH AND TECHNOLOGY, published 2011).
Where no end group is shown, it is not given here. [ ]: non-standard residue; d: D form. The star is where a group is joined. PEG 40 kDa = PEG (40 kDa) covalently attached to Cys; Met(O) = CS(=O)CC[C@H](N)C(=O)O; Myristoyl = CCCCCCCCCCCCCC(=O)*; Nle = CCCC[C@H](N)C(=O)O; Orn = NCCC[C@H](N)C(=O)O; Dab = NCC[C@H](N)C(=O)O; Dap = NC[C@H](N)C(=O)O; Aib = CC(C)(N)C(=O)O; Carbamoyl = NC(=O)*; Acm = CC(=O)NC*

T1: GIP receptor (UniProt P48546 22-466)
T1 sequence (looked up): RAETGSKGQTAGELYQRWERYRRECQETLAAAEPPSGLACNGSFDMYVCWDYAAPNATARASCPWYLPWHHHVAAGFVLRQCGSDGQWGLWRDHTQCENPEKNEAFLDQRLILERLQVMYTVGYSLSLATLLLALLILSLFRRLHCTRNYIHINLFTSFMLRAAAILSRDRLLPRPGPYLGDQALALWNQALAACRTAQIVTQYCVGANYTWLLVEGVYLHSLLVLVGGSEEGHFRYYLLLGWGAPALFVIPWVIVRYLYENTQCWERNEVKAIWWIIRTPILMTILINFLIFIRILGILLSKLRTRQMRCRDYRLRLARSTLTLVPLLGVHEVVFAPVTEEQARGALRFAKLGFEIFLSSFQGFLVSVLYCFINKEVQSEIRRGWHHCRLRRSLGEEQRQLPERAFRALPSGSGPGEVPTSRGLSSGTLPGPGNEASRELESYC


Tests used:
Assay in all cases: cell-based or functional assay
GIP receptor = biological target: T1, GIP receptor
glucagon receptor [1] = biological target: T2, glucagon receptor (UniProt P47871 26-477, limits assumed)
GLP-1 receptor = GLP-1 receptor (UniProt P43220 24-463, limits assumed)
glucagon receptor [2] = biological target: T2, glucagon receptor; remark: listed apart in the source

T2 sequence (P47871 26-477 limits assumed): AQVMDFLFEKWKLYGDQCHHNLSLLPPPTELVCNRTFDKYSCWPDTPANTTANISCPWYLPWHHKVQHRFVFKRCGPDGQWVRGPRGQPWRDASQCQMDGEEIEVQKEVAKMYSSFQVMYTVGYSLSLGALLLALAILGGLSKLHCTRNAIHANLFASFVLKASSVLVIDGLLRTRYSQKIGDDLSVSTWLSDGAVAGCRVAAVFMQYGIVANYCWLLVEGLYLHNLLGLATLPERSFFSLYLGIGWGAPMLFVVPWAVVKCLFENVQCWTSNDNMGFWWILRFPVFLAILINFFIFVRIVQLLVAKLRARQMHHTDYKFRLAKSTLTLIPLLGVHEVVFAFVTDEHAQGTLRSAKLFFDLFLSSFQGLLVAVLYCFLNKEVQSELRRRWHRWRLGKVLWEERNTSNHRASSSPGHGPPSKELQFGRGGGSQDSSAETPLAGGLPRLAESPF

Binder	EC50, nM; GIP Receptor (GIP receptor) [nM]	relative activity; GIP Receptor (GIP receptor) [%]	EC50, nM; Glucagon Receptor (glucagon receptor [1]) [nM]	relative activity; Glucagon Receptor (glucagon receptor [1]) [%]	EC50, nM; GLP-1 Receptor (GLP-1 receptor) [nM]	relative activity; GLP-1 Receptor (GLP-1 receptor) [%]	% activity* (glucagon receptor [2]) [%]	EC50 at Glucagon Receptor (glucagon receptor [2]) [nM]
Y[Aib]EGTFTSDK(Myristoyl)SIYLDKQAA[Aib]EFVC(PEG 40 kDa)WLLAGGPSSGAPPPS-NH2 [mt-341]	0.0566	27.4	499	0.01	0.0636	14.6		
HS[Orn](Ac)GTFTSDYSKYLDTRRAAEFVAWL[Nle]DE [Peptide J backbone with Orn(Ac) at position 3]							7	0.92
HS[Met(O)]GTFTSDYSKYLDTRRAAEFVAWL[Nle]DE [Peptide J backbone with M(O) at position 3]							7	0.91
HXQGTFTSDYSKYLDEQAAKEFICWLMNGGPSSGAPPPSK (listed among the acylated glucagon peptides in paragraph 284; non-standard residues as in the sequence listing) [mt-345]		4.99		193		153		
HS[Dab](Ac)GTFTSDYSKYLD[Aib]RRAADFVAWLMDE [Peptide K backbone with Dab(Ac) at position 3]							86	0.07
Y[Aib]EGTFTSDYSIYLDKQAA[Aib]EFVC(PEG 40 kDa)WLLAGGPSSGAPPPSK(Myristoyl)-NH2 [mt-353]	0.0035	103	12.5	0.17	0.0049	129		
YXEGTFTSDYSIYLDKQAAXEFVNWLLAGGPSSGAPPPSKC (AIB at position 20 (Example 25); listed among the acylated glucagon peptides in paragraph 284; other non-standard residues as in the sequence listing) [mt-343]	0.0243	63.8	41.1	0.07	0.0224	41.5		
YXEGTFTSDYSIYLDKQAAXEFVNWLLAGGPSSGAPPPSKC (AIB at position 20 (Example 25); other non-standard residues as in the sequence listing) [mt-344]	0.0319	48.6	159	0.02	0.089	10.4		
HS[Dap](Carbamoyl)GTFTSDYSKYLDTRRAAEFVAWL[Nle]DE [Peptide J backbone with Dap(urea) at position 3]							13	0.48
HSQGTFTSDYSKYLD[Aib]RRAADFVAWLMDE [Peptide K backbone with Q at position 3]							15	
HS[Dab](Ac)GTFTSDYSKYLDTRRAAEFVAWL[Nle]DE [Peptide J backbone with Dab(Ac) at position 3]							19	0.31
HSC(Acm)GTFTSDYSKYLDTRRAAEFVAWL[Nle]DE [Peptide J backbone with C(Acm) at position 3]							33	
